{"source": "patent US6737435B1", "about": "“Indole derivatives and their use as MCP-1 antagonist” (AstraZeneca AB, priority 1999, dated 2004)", "key": {"MCP-1 receptor B (CCR2B)": {"target": "T1, MCP-1 receptor B (CCR2B) (Homo sapiens, UniProt P41597)", "T1 construct": "expressed in transfected cells; host or cells: CHO-K1 (clone 7, CHO-CCR2B), stably transfected with pCDNA3/CCR2B; membrane fragments", "T1 sequence (P41597 1-360 isoform P41597-2)": "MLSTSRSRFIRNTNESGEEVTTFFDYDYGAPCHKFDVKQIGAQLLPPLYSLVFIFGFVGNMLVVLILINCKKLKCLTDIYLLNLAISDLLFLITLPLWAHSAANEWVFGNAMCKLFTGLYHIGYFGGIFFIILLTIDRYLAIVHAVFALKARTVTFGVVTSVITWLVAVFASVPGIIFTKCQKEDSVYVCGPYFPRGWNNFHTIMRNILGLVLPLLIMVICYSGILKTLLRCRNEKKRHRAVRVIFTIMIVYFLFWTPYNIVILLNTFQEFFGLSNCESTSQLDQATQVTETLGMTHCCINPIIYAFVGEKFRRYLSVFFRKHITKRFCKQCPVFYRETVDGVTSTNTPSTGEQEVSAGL", "assay": "hMCP-1 receptor binding assay (125I-MCP-1, CHO-CCR2B cell membranes)", "source_text": "The MCP-1 receptor B (CCR2B) cDNA was cloned by PCR from THP-1 cell RNA using suitable oligonucleotide primers based on the published MCP-1 receptor sequences (Charo et al., 1994, Proc. Natl. Acad. Sci. USA, 91, 2752). The resulting PCR products were cloned into vector PCR-II™ (InVitrogen, San Diego, Calif.). Error free CCR2B cDNA was subcloned as a Hind III-Not I fragment into the eukaryotic expression vector pCDNA3 (InVitrogen) to generate pCDNA3/CC-CKR2A and pCDNA3/CCR2B respectively.\nLinearised pCDNA3/CCR2B DNA was transfected into CHO-K1 cells by calcium phosphate precipitation (Wigler et al., 1979, Cell, 16, 777). Transfected cells were selected by the addition of Geneticin Sulphate (G418, Gibco BRL) at 1 mg/ml, 24 hours after the cells had been transfected. Preparation of RNA and Northern blotting were carried out as described previously (Needham et al., 1995, Prot. Express. Purific., 6, 134). CHO-K1 clone 7 (CHO-CCR2B) was identified as the highest MCP-1 receptor B expresser.\nCHO-CCR2B cells were grown in DMEM supplemented with 10% foetal calf serum, 2 mM glutamine, 1×Non-Essential Amino Acids, 1×Hypoxanthine and Thymidine Supplement and Penicillin-Streptomycin (at 50 μg streptomycin/ml, Gibco BRL). Membrane fragments were prepared using cell lysis/differential centrifugation methods as described previously (Siciliano et al., 1990, J. Biol. Chem., 265, 19658). […]"}, "THP-1 cells [1]": {"test_system": "THP-1 cells", "assay": "MCP-1 mediated calcium flux in THP-1 cells", "format": "cell-based, human", "settings": "stimulation of THP-1 cells with hMCP-1, FURA-2; read-out: EC50 of rise in [Ca2+]i", "description": "The human monocytic cell line THP-1 was grown in a synthetic cell culture medium RPMI 1640 supplemented with 10% foetal calf serum, 6 mM glutamine and Penicillin-Streptomycin (at 50 μg streptomycin/ml, Gibco BRL). THP-1 cells were washed in HBSS (lacking Ca^2+ and Mg^2+)+1 mg/ml BSA and resuspended in the same buffer at a density of 3×10^6 cells/ml. The cells were then loaded with […] FURA-2/AM for 30 min at 37° C., washed twice in HBSS, and resuspended at 1×10^6 cells/ml. THP-1 cell suspension (0.9 ml) was added to a 5 ml disposable cuvette containing a magnetic stirrer bar and 2.1 ml of prewarmed (37° C.) HBSS containing 1 mg/ml BSA, 1 mM MgCl2 and 2 mM CaCl2. The cuvette was placed in a fluorescence spectrophotometer (Perkin Elmer, Norwalk, Conn.) and preincubated for 4 min at 37° C. with stirring. Fluorescence was recorded over 70 sec and cells were stimulated by addition of hMCP-1 to the cuvette after 10 sec. [Ca^2+]i was measured by excitation at 340 nm and 380 nm alternately and subsequent measurement of the intensity of the fluorescence emission at 510 nm.\nwhere the Kd for FURA-2 Ca^2+ complex at 37° C. was taken to be 224 nm. […]"}, "THP-1 cells [2]": {"test_system": "THP-1 cells", "assay": "hMCP-1 mediated chemotaxis", "format": "cell-based, human", "settings": "biphasic response", "description": "In vitro chemotaxis assays were performed using the human monocytic cell line THP-1. Cell migration through polycarbonate membranes was measured by enumerating those passing through either directly by Coulter counting or indirectly by use of a colourimetric viability assay measuring the cleavage of a tetrazolium salt by the mitochondrial respiratory chain (Scudiero D. A. et al. 1988, Cancer Res., 48, 4827-4833).\nChemoattractants were introduced into a 96-well microtitre plate which forms the lower well of a chemotaxis chamber fitted with a PVP-free 5 μm poresize polycarbonate adhesive framed filter membrane (NeuroProbe MB series, Cabin John, Md. 20818, USA) according to the manufacturer's instructions. […] The plate was incubated at 37° C. for 3 h and the absorbance of the soluble formazan product was read on a microtitre plate reader at 450 nm. The data was input into a spreadsheet, corrected for any random migration in the absence of chemoattractant and the average absorbance values, standard error of the mean, and significance tests were calculated. hMCP-1 induced concentration dependent cell migration with a characteristic biphasic response, maximal […]. […]"}}, "data": [{"substance": "MCP-1: Human Monocyte Chemoattractant Protein-1, the chemokine ligand of the CCR2 receptor", "values": [{"measurement": "IC50", "setting": "MCP-1 receptor B (CCR2B); cold competition, 100 pM 125I-labeled MCP-1, CHO-CCR2B membrane fragments", "result": 0.11, "unit": "nM"}, {"measurement": "Kd", "setting": "MCP-1 receptor B (CCR2B); equilibrium binding, CHO-CCR2B membrane fragments", "result": 0.12, "unit": "nM"}, {"measurement": "EC50", "setting": "THP-1 cells [1]", "result": "~2", "unit": "nM"}, {"measurement": "concentration of maximal cell migration", "setting": "THP-1 cells [2]", "result": "0.5-1.0 nm"}]}]}
